Data set [1] is described as follows: Widefield FLT of probes in culture media and stock solution in PBS. Format: physicochemical. From the text: In accordance with one particular and non-limiting study, for widefield time-domain imaging, a system akin that of FIG. 1 was used that included a Supercontinuum laser and tunable filter (EXR-20, SuperK Varia, NKT Photonics, 80 MHz repetition rate; 400-850 nm tuning range) providing 770±30 nm excitation, a multimode fiber (Thorlabs, Newton, New Jersey, United States) delivering light to the sample, and a gated intensified CCD (LaVision, Picostar, 500 V gain, 0.1 to 1 second integration time, 150 ps steps, 256×344 pixels after 4×4 hardware binning). A digital micromirror device was used to expand the output of the optical fiber and delivered to the surface of the animal. The average total power across the illumination area (approximately 6×8-cm) was 10 to 20 mW. Fluorescence was collected in reflectance mode using an 835/70-nm band-pass filter. TD fluorescence imaging was performed with a gate width of 600 ps and 150 ps steps for a total duration of approximately 6 ns per laser duty cycle of 12.5 ns. […] Animals were sacrificed after imaging and tumors were immediately frozen in optimal cutting temperature (OCT) compound for fluorescence lifetime imaging microscopy (FLIM), histology and immunohistochemical (IHC) staining.
For the widefield TD data analysis, TD fluorescence images were analyzed in MATLAB (MathWorks, Natick, Massachusetts, United States) using a custom software. […]

The test system of data set [2] is FaDu cells. The data set can be described thus: Confocal FLIM of FaDu cells incubated with imaging probes. Format: cell-based. The note with it: 100 μg probe, 2 hours incubation. The procedure:
Also, a […] 8 FALCON (Leica, Germany) FLIM system was used for NIR FLIM of 10-μm thin tissue sections (murine tumors and clinical specimens). Imaging was performed using 730 nm excitation with 750 nm notch filter and detected with a HyD R detector operating within 770-850 nm range. A 10×, 0.4 NA objective was used for image collection and digital images with 512×512 pixels (2.275 μm/pixel), 4 line repetitions and 4 line averages were obtained. TD data was collected using time-correlated single photon counting.
For in vitro experiments, FaDu cells were plated at 0.2×10^6 cells per well in a 12-well plate containing poly-D-lysine coated glass coverslips and were allowed to adhere to the coverslips for 24 hours. […] After probe incubation, cells were fixed in 4% para-formaldehyde (PFA) and mounted with ProLong Gold Antifade medium (ThermoFisher Scientific, Waltham, Massachusetts, United States) for confocal FLIM.
For the FLIM and IHC image analysis, the FALCON/FLIM software was used to collect and analyze the FLIM data. Lifetime values at each pixel location was calculated by using a single exponential fitting of the fluorescence decay curves. […] IHC image ROIs were analyzed by color deconvolution using the IHC Tool Box in ImageJ (NIH, Version 1.48u) to extract EGFR positive pixels within each ROI. […] Corresponding FLIM image ROIs were analyzed by averaging FLT values above 0.3 ns. […]

The conditions of data set [3]: several recent clinical trials; cited from earlier work.

Here are results for one substance from patent US20240423474A1, “SYSTEM AND METHOD FOR INTRAOPERATIVE LIFETIME IMAGING” (The General Hospital Corporation, priority 2021, published 2024).

Regarding “panitumumab-IRDye800CW: conjugate of the FDA approved therapeutic antibody for the epidermal growth factor receptor (EGFR), panitumumab, with IRdye800CW, an NIR dye”, the “FLT in culture media” value in data set [1] (culture media collected after incubation with cancer cells) is given as 0.58 ns. In addition, the “FLT of stock solution in PBS” value in data set [1] (stock solution in PBS) is 0.58 ns. Moreover, the “probe uptake in cells” value in data set [2] was “higher probe uptake”. Besides, the safety in humans result in data set [3] is “safe for human use”.
